In publication PMC12448032 one finds uptake by K7M2 cells of BI@PCM NPs (PD1-high membrane) compared to B@CM NPs (PD1-low membrane), flow cytometry, 4 h data, which are given here for one substance.

For the test, the target named is PD-L1 (UniProt Q9EP73).
Chain of UniProt Q9EP73 (Q9EP73 19-290): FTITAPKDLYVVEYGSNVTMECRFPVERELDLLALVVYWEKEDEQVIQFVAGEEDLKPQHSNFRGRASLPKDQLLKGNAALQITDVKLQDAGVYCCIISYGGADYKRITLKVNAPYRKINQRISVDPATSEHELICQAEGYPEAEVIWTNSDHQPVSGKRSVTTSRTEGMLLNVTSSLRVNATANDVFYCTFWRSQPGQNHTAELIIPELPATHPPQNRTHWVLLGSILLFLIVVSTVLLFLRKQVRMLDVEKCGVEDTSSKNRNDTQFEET

For “programmed cell death-1 (PD1), mouse, overexpressed in 293 T cells (from UniProt Q02242 25-288) (receptor)”, the uptake by K7M2 cells of BI@PCM NPs (PD1-high membrane) compared to B@CM NPs (PD1-low membrane), flow cytometry, 4 h came to 2.1 fold.
